Data set [1] addresses 76_4 (designed UGT76G1 variant) (Stevia rebaudiana, UniProt Q6VAB4, L101F/S192K/R297W/V300K/S305P/G348P, form not given). The settings on record: 1 mM UDPG; 0-300 uM ST; ST to RebA conversion; 2 min time course.
Substrate in data set [2]: C=C1C[C@@]23CC[C@H]4[C@@](C)(CCC[C@@]4(C)C(=O)O[C@@H]4O[C@H](CO)[C@@H](O)[C@H](O)[C@H]4O)[C@@H]2CC[C@]1(O[C@@H]1O[C@H](CO)[C@@H](O)[C@H](O)[C@H]1O[C@@H]1O[C@H](CO)[C@@H](O)[C@H](O)[C@H]1O)C3
The data set is described as follows: purified protein. The settings on record: 1 mM UDPG; 0-300 uM ST; ST to RebA conversion; 2 min time course.

Chain of 76_4 (designed UGT76G1 variant) (Q6VAB4 12-458 L101F/S192K/R297W/V300K/S305P/G348P, form open): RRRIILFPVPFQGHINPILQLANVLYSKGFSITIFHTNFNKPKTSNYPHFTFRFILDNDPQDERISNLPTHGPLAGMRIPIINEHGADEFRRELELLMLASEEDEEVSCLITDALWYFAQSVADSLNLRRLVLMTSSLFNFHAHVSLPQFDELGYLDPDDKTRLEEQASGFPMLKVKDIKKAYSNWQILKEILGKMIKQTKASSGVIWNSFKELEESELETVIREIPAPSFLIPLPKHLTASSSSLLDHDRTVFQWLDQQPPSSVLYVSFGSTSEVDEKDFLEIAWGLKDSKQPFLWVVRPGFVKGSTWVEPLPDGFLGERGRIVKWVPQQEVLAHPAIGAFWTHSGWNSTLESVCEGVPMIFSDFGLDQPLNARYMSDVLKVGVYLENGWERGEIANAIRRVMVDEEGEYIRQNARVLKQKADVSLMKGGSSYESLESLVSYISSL

As a reminder, the Km is the concentration of substrate that gives half-maximal velocity. As to `C=C1C[C@@]23CC[C@H]4[C@@](C)(CCC[C@@]4(C)C(=O)O[C@@H]4O[C@H](CO)[C@@H](O)[C@H](O)[C@H]4O)[C@@H]2CC[C@]1(O[C@@H]1O[C@H](CO)[C@@H](O)[C@H](O)[C@H]1O[C@@H]1O[C@H](CO)[C@@H](O)[C@H](O)[C@H]1O)C3` [ST, stevioside], the Km in data set [1] was determined as 34.5 ± 3 µM.

B1: UGT76G1 (WT) (Stevia rebaudiana) (protein)
chain: MENKTETTVRRRRRIILFPVPFQGHINPILQLANVLYSKGFSITIFHTNFNKPKTSNYPHFTFRFILDNDPQDERISNLPTHGPLAGMRIPIINEHGADELRRELELLMLASEEDEEVSCLITDALWYFAQSVADSLNLRRLVLMTSSLFNFHAHVSLPQFDELGYLDPDDKTRLEEQASGFPMLKVKDIKSAYSNWQILKEILGKMIKQTKASSGVIWNSFKELEESELETVIREIPAPSFLIPLPKHLTASSSSLLDHDRTVFQWLDQQPPSSVLYVSFGSTSEVDEKDFLEIARGLVDSKQSFLWVVRPGFVKGSTWVEPLPDGFLGERGRIVKWVPQQEVLAHGAIGAFWTHSGWNSTLESVCEGVPMIFSDFGLDQPLNARYMSDVLKVGVYLENGWERGEIANAIRRVMVDEEGEYIRQNARVLKQKADVSLMKGGSSYESLESLVSYISSL
Broadly, the kcat is the number of substrate molecules converted per active site and unit of time at saturation. For the molecule B1, in data set [2], the Km amounted to 92.0 ± 5.3 µM and the kcat is 17.3 ± 1.6 min⁻¹.

For the origin of these results see publication PMC10700650, “Enhancing the thermostability and activity of glycosyltransferase UGT76G1 via computational design” (Communications Chemistry, 2023).
